Test results published in paper PMC12290104, “PEAK1 maintains tight junctions in intestinal epithelial cells and resists colitis by inhibiting autophagy-mediated ZO-1 degradation” (Nature Communications, 2025).
Values belong to the molecule of their own block, whether it stands above or below them.

Assays:
ZO-1 = ZO-1 (UniProt Q07157); test: co-IP of FC-PEAK1, ZO-1 blot; conditions: reference: FC-PEAK1 wild type; sites Y724
GFP-tagged ZO-1 = biological target: T1, GFP-tagged ZO-1 (human, UniProt Q07157 1-1748); test: pull-down; 10 μg FC-tagged PEAK1^WT or PEAK1^Y724F purified from HEK293T held on Protein A Sepharose (blocked with 10% FBS); GFP-tagged ZO-1 at 0, 1, 2 and 4 μg, 4 h, 4 °C; immunoblot; conditions: both partners purified
T1 construct: ZO-1, human cDNA cloned into pTriEx-GFP; last truncation ends at 1748; also called GFP-ZO-1; GFP-tagged ZO-1 (WT); source: HEK293T, transfected, in lysate; also purified from HEK293T (anti-GFP magnetic beads, glycine pH 2.5 elution)
T1 sequence (Q07157 whole entry, the tested form may be a part): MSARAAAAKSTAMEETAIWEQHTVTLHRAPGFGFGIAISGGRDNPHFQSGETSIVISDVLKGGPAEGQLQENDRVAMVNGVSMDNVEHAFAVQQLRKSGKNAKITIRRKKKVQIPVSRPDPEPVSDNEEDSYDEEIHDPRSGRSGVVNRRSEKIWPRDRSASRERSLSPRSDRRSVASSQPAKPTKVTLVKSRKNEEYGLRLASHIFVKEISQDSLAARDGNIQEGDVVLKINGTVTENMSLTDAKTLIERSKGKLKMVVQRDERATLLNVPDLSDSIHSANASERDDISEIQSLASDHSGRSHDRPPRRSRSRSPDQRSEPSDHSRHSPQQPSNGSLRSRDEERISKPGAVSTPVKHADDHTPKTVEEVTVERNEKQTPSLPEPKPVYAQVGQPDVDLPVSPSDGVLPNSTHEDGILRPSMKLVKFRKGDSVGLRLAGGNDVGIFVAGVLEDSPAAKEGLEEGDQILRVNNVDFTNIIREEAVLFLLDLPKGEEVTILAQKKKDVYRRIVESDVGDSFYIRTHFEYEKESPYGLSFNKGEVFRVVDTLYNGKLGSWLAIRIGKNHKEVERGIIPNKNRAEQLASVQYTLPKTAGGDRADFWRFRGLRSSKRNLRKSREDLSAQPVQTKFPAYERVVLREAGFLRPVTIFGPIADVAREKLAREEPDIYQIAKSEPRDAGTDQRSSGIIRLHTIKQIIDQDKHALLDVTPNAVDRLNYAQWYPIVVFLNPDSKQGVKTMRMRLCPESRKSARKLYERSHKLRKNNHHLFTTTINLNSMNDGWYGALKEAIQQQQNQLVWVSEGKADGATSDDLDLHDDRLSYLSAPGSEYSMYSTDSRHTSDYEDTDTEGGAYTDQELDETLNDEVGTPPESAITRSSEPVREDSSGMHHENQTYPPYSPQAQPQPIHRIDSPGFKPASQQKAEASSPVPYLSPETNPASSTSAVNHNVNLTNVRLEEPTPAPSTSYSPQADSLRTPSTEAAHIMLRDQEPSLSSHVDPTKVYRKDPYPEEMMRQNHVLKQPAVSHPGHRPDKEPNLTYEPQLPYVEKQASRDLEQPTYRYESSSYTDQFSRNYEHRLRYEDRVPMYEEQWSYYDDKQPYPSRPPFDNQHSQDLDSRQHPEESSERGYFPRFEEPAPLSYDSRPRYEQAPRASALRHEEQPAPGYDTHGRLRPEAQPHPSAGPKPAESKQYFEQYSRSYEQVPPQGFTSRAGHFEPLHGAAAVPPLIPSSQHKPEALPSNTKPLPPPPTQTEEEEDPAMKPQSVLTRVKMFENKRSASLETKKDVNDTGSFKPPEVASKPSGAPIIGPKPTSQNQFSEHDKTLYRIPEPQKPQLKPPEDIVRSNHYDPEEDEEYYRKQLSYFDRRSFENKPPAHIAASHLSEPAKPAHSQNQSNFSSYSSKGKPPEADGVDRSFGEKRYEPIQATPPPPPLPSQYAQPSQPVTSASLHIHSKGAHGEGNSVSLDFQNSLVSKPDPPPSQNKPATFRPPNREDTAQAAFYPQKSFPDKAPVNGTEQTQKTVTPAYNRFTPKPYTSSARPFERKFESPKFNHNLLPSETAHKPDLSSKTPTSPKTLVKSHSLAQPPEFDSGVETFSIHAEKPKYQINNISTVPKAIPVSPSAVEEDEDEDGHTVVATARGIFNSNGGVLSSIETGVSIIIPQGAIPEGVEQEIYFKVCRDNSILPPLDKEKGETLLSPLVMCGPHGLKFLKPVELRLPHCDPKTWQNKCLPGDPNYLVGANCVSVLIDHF

binding against the reference (ZO-1): weaker
Molecule: PEAK1 (from UniProt Q9H792) FC-PEAK1 Y724F

binding result (GFP-tagged ZO-1): binds
B1: FC-tagged PEAK1^WT (Fc fusion, human, UniProt Q9H792 1-1746, looked up)
chain: MSACNTFTEHVWKPGECKNCFKPKSLHQLPPDPEKAPITHGNVKTNANHSNNHRIRNTGNFRPPVAKKPTIAVKPTMIVADGQSICGELSIQEHCENKPVIIGWNRNRAALSQKPLNNNNEDDEGISHVPKPYGNNDSAKKMSDNNNGLTEVLKEIAGLDTAPQIRGNETNSRETFLGRINDCYKRSLERKLPPSCMIGGIKETQGKHVILSGSTEVISNEGGRFCYPEFSSGEESEEDVLFSNMEEEHESWDESDEELLAMEIRMRGQPRFANFRANTLSPVRFFVDKKWNTIPLRNKSLQRICAVDYDDSYDEILNGYEENSVVSYGQGSIQSMVSSDSTSPDSSLTEESRSETASSLSQKICNGGLSPGNPGDSKDMKEIEPNYESPSSNNQDKDSSQASKSSIKVPETHKAVLALRLEEKDGKIAVQTEKEESKASTDVAGQAVTINLVPTEEQAKPYRVVNLEQPLCKPYTVVDVSAAMASEHLEGPVNSPKTKSSSSTPNSPVTSSSLTPGQISAHFQKSSAIRYQEVWTSSTSPRQKIPKVELITSGTGPNVPPRKNCHKSAPTSPTATNISSKTIPVKSPNLSEIKFNSYNNAGMPPFPIIIHDEPTYARSSKNAIKVPIVINPNAYDNLAIYKSFLGTSGELSVKEKTTSVISHTYEEIETESKVPDNTTSKTTDCLQTKGFSNSTEHKRGSVAQKVQEFNNCLNRGQSSPQRSYSSSHSSPAKIQRATQEPVAKIEGTQESQMVGSSSTREKASTVLSQIVASIQPPQSPPETPQSGPKACSVEELYAIPPDADVAKSTPKSTPVRPKSLFTSQPSGEAEAPQTTDSPTTKVQKDPSIKPVTPSPSKLVTSPQSEPPAPFPPPRSTSSPYHAGNLLQRHFTNWTKPTSPTRSTEAESVLHSEGSRRAADAKPKRWISFKSFFRRRKTDEEDDKEKEREKGKLVGLDGTVIHMLPPPPVQRHHWFTEAKGESSEKPAIVFMYRCDPAQGQLSVDQSKARTDQAAVMEKGRAENALLQDSEKKRSHSSPSQIPKKILSHMTHEVTEDFSPRDPRTVVGKQDGRGCTSVTTALSLPELEREDGKEDISDPMDPNPCSATYSNLGQSRAAMIPPKQPRQPKGAVDDAIAFGGKTDQEAPNASQPTPPPLPKKMIIRANTEPISKDLQKSMESSLCVMANPTYDIDPNWDASSAGSSISYELKGLDIESYDSLERPLRKERPVPSAANSISSLTTLSIKDRFSNSMESLSSRRGPSCRQGRGIQKPQRQALYRGLENREEVVGKIRSLHTDALKKLAVKCEDLFMAGQKDQLRFGVDSWSDFRLTSDKPCCEAGDAVYYTASYAKDPLNNYAVKICKSKAKESQQYYHSLAVRQSLAVHFNIQQDCGHFLAEVPNRLLPWEDPDDPEKDEDDMEETEEDAKGETDGKNPKPCSEAASSQKENQGVMSKKQRSHVVVITREVPCLTVADFVRDSLAQHGKSPDLYERQVCLLLLQLCSGLEHLKPYHVTHCDLRLENLLLVHYQPGGTAQGFGPAEPSPTSSYPTRLIVSNFSQAKQKSHLVDPEILRDQSRLAPEIITATQYKKCDEFQTGILIYEMLHLPNPFDENPELKEREYTRADLPRIPFRSPYSRGLQQLASCLLNPNPSERILISDAKGILQCLLWGPREDLFQTFTACPSLVQRNTLLQNWLDIKRTLLMIKFAEKSLDREGGISLEDWLCAQYLAFATTDSLSCIVKILQHR
notes: PEAK1, human cDNA cloned into pTriEx-FC; also called FC-PEAK1; FC-PEAK1^WT; source: HEK293T, transfected, in lysate; also purified from HEK293T (protein A sepharose, glycine pH 2.5 elution)
